Data: patent publication US20250051425A1 (YALE UNIVERSITY, published 2025)

Legend:
[1] = target: T1, Influenza A H1N1 (A/Puerto Rico/8/1934) Hemagglutinin/HA Protein (ECD, His Tag) (Influenza A H1N1 (A/Puerto Rico/8/1934), UniProt P03452 18-528); experiment: ELISA, coated antigen
T1 construct: extracellular domain; Bought; also called influenza A/PR8 (H1N1) hemagglutinin (HA); H1N1 HA

SARS S1 protein, His Tag = target: T2, SARS S1 protein, His Tag (SARS-CoV-1, UniProt P59594 14-667); experiment: ELISA, coated antigen, mAb 3 µg/mL
T2 construct: domain: S1; also called recombinant severe acute respiratory syndrome coronavirus 1 (SARS-CoV-1) spike protein

T1 sequence (P03452 18-528): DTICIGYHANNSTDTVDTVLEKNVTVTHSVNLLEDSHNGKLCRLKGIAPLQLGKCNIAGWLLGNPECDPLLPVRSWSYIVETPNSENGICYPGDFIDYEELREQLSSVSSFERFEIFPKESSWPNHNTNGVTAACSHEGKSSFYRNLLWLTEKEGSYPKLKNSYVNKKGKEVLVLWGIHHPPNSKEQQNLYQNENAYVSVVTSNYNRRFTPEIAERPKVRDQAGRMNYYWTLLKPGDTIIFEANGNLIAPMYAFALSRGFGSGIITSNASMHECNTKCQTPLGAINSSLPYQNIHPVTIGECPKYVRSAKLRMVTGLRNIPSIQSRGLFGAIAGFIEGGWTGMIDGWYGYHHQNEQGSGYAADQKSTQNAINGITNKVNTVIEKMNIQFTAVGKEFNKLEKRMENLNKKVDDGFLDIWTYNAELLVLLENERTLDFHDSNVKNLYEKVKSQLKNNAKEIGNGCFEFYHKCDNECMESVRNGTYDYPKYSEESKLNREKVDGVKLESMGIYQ

B1: IGHV6-3 monoclonal antibody (mouse IgG2c, Ig kappa) (antibody, V domains shown)
VH: EVKLEESGGGLVQPGGSMKLSCVASGFTFSNYWMNWVRQSPEKGLEWVAQIRLKSDNYATHYAESVKGRFTISRDDSKSSVYLQMNNLRAEDTGIYYCTDITGPIDYWGQGTTLTVSS
VL: DIKMTQSPSSMYASLGERVTITCKASQDINSYLSWFQQKPGKSPKTLIYRANRLVDGVPSRFSGSGSGQDYSLTISSLEYEDMGIYYCLQYDEFPYTFGGGTKLEIK
notes: also called IGHV6-3 mAb; Mouse IGHV6-3 mAb, g2c
B1: binds [1]; binds (SARS S1 protein, His Tag).
